US20260226176A1 (THERANOVIR, published 2026)

Legend:
[1] = target: T1, native human NRP-1 on the cell surface (human, UniProt O14786 22-923); test: flow cytometry, MDA-MB-231 cells, 40 ug/ml, with against without chondroitinase
T1 construct: whole, on cells; endogenous protein; isoform and glycosaminoglycan state on the cells not defined; also called native NRP-1 on MDA-MB-231 cells; native form of NRP-1 protein on the CTCs cell surface
Method: Chondroitinase (C2905, Sigma) was reconstituted in a 0.01% BSA aqueous solution. The MDA-MB-231 cells were treated with chondroitinase (1 U/ml) for 2 hours at 37° C. The cells were detached using cell dissociation solution non-enzymatic (C5914, Sigma). 300,000 cells per condition were washed with 2% FBS in PBS and then incubated with different antibodies of interest or their respective isotype controls at 40 μg/ml for 30 min at 4° C. After wash, an Alexa 488-conjugated anti-human immunoglobulin antibody (20022-1, Biotium) was added at 10 μg/ml for 30 min at 4° C. After a final wash, fluorescence, size and granularity of cells were measured by the LSR Fortessa cytometer (BD Biosciences).

[2] = target: T2, recombinant murine NRP-1 (5994-N1-050, Bio-Techne) (murine, UniProt P97333 22-856); test: ELISA, antibody 10 µg/ml, 1 µg immobilised murine NRP-1
T2 construct: extracellular domain; bought protein; also called mouse recombinant NRP-1

[3] = target: T1, native human NRP-1 on the cell surface; test: flow cytometry, MDA-MB-231 cells, 10 ug/ml, with against without heparinase
[4] = target: T3, recombinant human NRP-1 (3870-N1-025, Bio-Techne) (human, UniProt O14786 22-856); test: ELISA, antibody 10 µg/ml, 1 µg immobilised human NRP-1
T3 construct: extracellular domain; bought protein; also called human recombinant NRP-1

NRP-1 peptide (Npep) = target: T4, NRP-1 peptide (Npep); test: ELISA, antibody 10 µg/ml, 2 µg immobilised Npep
T4 construct: also called synthetic peptide Npep
T4 peptide: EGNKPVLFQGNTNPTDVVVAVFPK

[5] = target: T1, native human NRP-1 on the cell surface; test: flow cytometry, MDA-MB-231 cells, 10 ug/ml, -heparinase
[6] = target: X-ray repair cross-complementing protein 5 (human) (UniProt P13010); test: co-IP from CTC41.5E lysate, LC-MS/MS, peak area against isotype IP
[7] = target: Poly [ADP-ribose] polymerase 2 (human) (UniProt Q9UGN5); test: as above
[8] = target: SWI/SNF-related matrix-associated actin-dependent regulator of chromatin subfamily A member 5 (human) (UniProt O60264); test: as above
[9] = target: X-ray repair cross-complementing protein 6 (human) (UniProt P12956); test: as above
[10] = target: UV excision repair protein RAD23 homolog B (human) (UniProt P54727); test: as above
[11] = target: Poly [ADP-ribose] polymerase 1 (human) (UniProt P09874); test: as above
[12] = target: FACT complex subunit SPT16 (human) (UniProt Q9Y5B9); test: as above
DNA ligase 3 (human) = DNA ligase 3 (human) (UniProt P49916); test: as above
Histone H3.1 (human) = Histone H3.1 (human) (UniProt P68431); test: as above
[13] = target: Core histone macro-H2A.1 (human) (UniProt O75367); test: as above
[14] = target: Werner syndrome ATP-dependent helicase (human) (UniProt Q14191); test: as above
[15] = target: DNA-directed RNA polymerase I subunit RPA1 (human) (UniProt O95602); test: as above
[16] = target: Replication protein A 70 kDa DNA-binding subunit (human) (UniProt P27694); test: as above
[17] = target: DNA topoisomerase 1 (human) (UniProt P11387); test: as above
[18] = target: DNA topoisomerase 2-beta (human) (UniProt Q02880); test: as above
Histone H2A.Z (human) = Histone H2A.Z (human) (UniProt P0C0S5); test: as above
[19] = target: DNA topoisomerase 2-alpha (human) (UniProt P11388); test: as above
[20] = target: DNA mismatch repair protein Msh6 (human) (UniProt P52701); test: as above
[21] = target: DNA mismatch repair protein Msh2 (human) (UniProt P43246); test: as above
[22] = target: DNA-dependent protein kinase catalytic subunit (DNA-PK) (human) (UniProt P78527); test: as above
[23] = target: Sister chromatid cohesion protein PDS5 homolog B (human) (UniProt Q9NTI5); test: as above
[24] = target: DNA repair protein complementing XP-C cells (human) (UniProt Q01831); test: as above

B1: variant 4 of a-NRP1_LEP n° 1 (antibody, V domains shown)
VH: EVQLVESGGGLVQPGGSLRLSCAASGFTFSSFGMHWVRQAPGKGLEWVAYISSGSSTIHYADSVKGRFTISRDNAKNSLYLQMNSLRAEDTAMYYCARRHYGSSRYWYFDVWGQGTTVTVSS
VL: EIVLTQSPATLSLSPGERATLSCRASQSVKSYLAWYQQKPGQAPRLLIYYASSRATGIPARFSGSGSGTDFTLTISSLEPEDFAVYYCQQYSESPYTFGQGTKLEIK
notes: humanized variant of 21B10; isotype control hIgG4; also called variant 4 a-NRP1_LEP; variant n°4 a-NRP1_LEP
- delta (% of control) [1]: -6.8%
- Absorbance [2]: 0.986
- delta (% of control) [3]: -2.3%
- Absorbance [4]: 0.953
- Absorbance (NRP-1 peptide (Npep)): 0.855
- percentage of binding [5]: 12.4%
- Ratio Area V4/IgG4 [6]: 38.7
- Ratio Area V4/IgG4 [7]: 1
- Ratio Area V4/IgG4 [8]: 589
- Ratio Area V4/IgG4 [9]: 58.8
- Ratio Area V4/IgG4 [10]: 307
- Ratio Area V4/IgG4 [11]: 709
- Ratio Area V4/IgG4 [12]: 5490
- Ratio Area V4/IgG4 (DNA ligase 3 (human)): 7770
- Ratio Area V4/IgG4 (Histone H3.1 (human)): 304
- Ratio Area V4/IgG4 [13]: 8780
- Ratio Area V4/IgG4 [14]: 759
- Ratio Area V4/IgG4 [15]: 785
- Ratio Area V4/IgG4 [16]: 13.6
- Ratio Area V4/IgG4 [17]: 6880
- Ratio Area V4/IgG4 [18]: 50.1
- Ratio Area V4/IgG4 (Histone H2A.Z (human)): 624
- Ratio Area V4/IgG4 [19]: 538
- Ratio Area V4/IgG4 [20]: 813
- Ratio Area V4/IgG4 [21]: 335
- Ratio Area V4/IgG4 [22]: 10.5
- Ratio Area V4/IgG4 [23]: 12.5
- Ratio Area V4/IgG4 [24]: 480
